Assay results from the supplement of paper PMC9112550, “Optimization of the antimicrobial peptide Bac7 by deep mutational scanning” (BMC Biology, 2022).

tested on: Escherichia coli TOP10; assay: shrunken log2 fold change of peptide-encoding DNA abundance (4.5 h post-induction vs induction); higher = less antimicrobial activity (less host growth inhibition); conditions: time post-induction: 4.5 h; library: site-saturation at positions 5, 18, 19, 20
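Also: peptides expressed intracellularly from a pBAD plasmid library in pooled LB shake-flask culture, induced with 0.3% L-arabinose, DNA abundance read by NGS, three biological replicates, DESeq2 with apeglm shrinkage.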

Sequence | shrunken log2 fold change
RRIRERPPRLPRPRPRPEYGPRP | -0.315
RRIRCRPPRLPRPRPRPYWQPRP | -0.419
RRIRARPPRLPRPRPRPEDMPRP | 0.816
RRIRQRPPRLPRPRPRPELFPRP | -0.0927
RRIRGRPPRLPRPRPRPLEHPRP | 0.594
RRIRIRPPRLPRPRPRPDVCPRP | -0.225
RRIRYRPPRLPRPRPRPFHWPRP | 0.0011
RRIRHRPPRLPRPRPRPLGTPRP | -0.129
RRIRERPPRLPRPRPRPISQPRP | -0.058
RRIRHRPPRLPRPRPRPIWFPRP | 1.65
RRIRQRPPRLPRPRPRPMTPPRP | 0.126
RRIRSRPPRLPRPRPRPNRIPRP | -0.304
RRIRFRPPRLPRPRPRPGHYPRP | -0.205
RRIRIRPPRLPRPRPRPDQRPRP | 0.0228
RRIRNRPPRLPRPRPRPAGTPRP | 0.0756
RRIRSRPPRLPRPRPRPPNIPRP | -0.251
RRIRARPPRLPRPRPRPEQSPRP | 0.119
RRIRVRPPRLPRPRPRPSCGPRP | -0.113
RRIRTRPPRLPRPRPRPCQPPRP | -0.387
RRIRIRPPRLPRPRPRPPEMPRP | -0.291
RRIRARPPRLPRPRPRPVFLPRP | 1.14
RRIRIRPPRLPRPRPRPRRVPRP | -0.0339
RRIRIRPPRLPRPRPRPGKYPRP | -0.394
RRIRLRPPRLPRPRPRPHYSPRP | -0.246
RRIRCRPPRLPRPRPRPGYLPRP | -0.561

Sequence | shrunken log2 fold change
RRIRMRPPRLPRPRPRPWWMPRP | 0.0885
RRIRRRPPRLPRPRPRPHDPPRP | -0.0379
RRIRYRPPRLPRPRPRPASGPRP | -0.148
RRIRCRPPRLPRPRPRPNPHPRP | -0.158
RRIRTRPPRLPRPRPRPFYSPRP | -0.701
RRIRSRPPRLPRPRPRPFRDPRP | -0.123
RRIRLRPPRLPRPRPRPPRGPRP | 0.637
RRIRSRPPRLPRPRPRPGNLPRP | -0.0533
RRIRRRPPRLPRPRPRPFYSPRP | -0.307
RRIRARPPRLPRPRPRPKADPRP | 0.597
RRIRHRPPRLPRPRPRPTLNPRP | 0.134
RRIRKRPPRLPRPRPRPINLPRP | -0.00204
RRIRDRPPRLPRPRPRPFKEPRP | 0.0108
RRIRLRPPRLPRPRPRPLNGPRP | -0.217
RRIRWRPPRLPRPRPRPSNVPRP | 0.108
RRIRIRPPRLPRPRPRPGKIPRP | -0.0443
RRIRRRPPRLPRPRPRPHMMPRP | 0.176
RRIRARPPRLPRPRPRPPWCPRP | 0.373
RRIRNRPPRLPRPRPRPCPLPRP | 0.011
RRIRCRPPRLPRPRPRPYPPPRP | -0.631
RRIRLRPPRLPRPRPRPKLLPRP | -0.331
RRIRTRPPRLPRPRPRPIAYPRP | 0.0173
RRIRPRPPRLPRPRPRPGPWPRP | 0.0326
RRIRSRPPRLPRPRPRPKWVPRP | -0.209
RRIRWRPPRLPRPRPRPFMIPRP | -0.798

Sequence | shrunken log2 fold change
RRIRSRPPRLPRPRPRPGVLPRP | 0.0866
RRIRCRPPRLPRPRPRPVPIPRP | 0.0325
RRIRLRPPRLPRPRPRPNEVPRP | -0.0062
RRIRARPPRLPRPRPRPCGSPRP | -0.0125
RRIRHRPPRLPRPRPRPLMWPRP | -0.218
RRIRVRPPRLPRPRPRPRHYPRP | 0.645
RRIRHRPPRLPRPRPRPEAIPRP | -0.0296
RRIRVRPPRLPRPRPRPTQLPRP | 0.504
RRIRQRPPRLPRPRPRPFLLPRP | -0.165
RRIRTRPPRLPRPRPRPKPGPRP | 0.299
RRIRWRPPRLPRPRPRPWQFPRP | 0.00487
RRIRDRPPRLPRPRPRPKTGPRP | -0.111
RRIRDRPPRLPRPRPRPPHHPRP | -0.0964
RRIRNRPPRLPRPRPRPVKNPRP | -0.157
RRIRMRPPRLPRPRPRPHHEPRP | -0.00212
RRIRDRPPRLPRPRPRPVKLPRP | -0.896
RRIRIRPPRLPRPRPRPHNWPRP | -0.239
RRIRDRPPRLPRPRPRPHVTPRP | -0.631
RRIRWRPPRLPRPRPRPCIWPRP | 0.0256
RRIRDRPPRLPRPRPRPSHRPRP | 0.102
RRIRPRPPRLPRPRPRPRHDPRP | 0.186
RRIRCRPPRLPRPRPRPEEHPRP | -0.0578
RRIRWRPPRLPRPRPRPECKPRP | 0.685
RRIRIRPPRLPRPRPRPNGIPRP | -0.337
RRIRERPPRLPRPRPRPATGPRP | -0.0619
